Assay results from publication PMC7360964, “Auto‐inhibition of Mif2/CENP‐C ensures centromere‐dependent kinetochore assembly in budding yeast” (The EMBO Journal, 2020).
Changes are numbered by the printed parent chain. Names may count otherwise. Where no end group is shown, it is not given here.

T1: Mtw1-Nnf1 heterodimer (MN) (S. cerevisiae, UniProt P39731 1-289; P47149 1-201)
T1 construct: Mtw1, S. cerevisiae; Nnf1, S. cerevisiae; also called Mtw1/Nnf1 dimer; MN complex; source: E. coli BL21 (DE3), purified (HisTrap, Q flow-through, SEC); not shown: His6, N-terminal, kept
T1 sequence (looked up) 1: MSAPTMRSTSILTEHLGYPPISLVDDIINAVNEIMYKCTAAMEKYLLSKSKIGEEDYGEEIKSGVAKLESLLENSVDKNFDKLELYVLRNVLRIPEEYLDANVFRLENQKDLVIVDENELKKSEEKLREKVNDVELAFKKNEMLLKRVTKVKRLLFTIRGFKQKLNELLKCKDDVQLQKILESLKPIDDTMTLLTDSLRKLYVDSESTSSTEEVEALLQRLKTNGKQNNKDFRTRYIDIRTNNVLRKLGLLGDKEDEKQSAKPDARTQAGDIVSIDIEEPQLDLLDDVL
T1 sequence (looked up) 2: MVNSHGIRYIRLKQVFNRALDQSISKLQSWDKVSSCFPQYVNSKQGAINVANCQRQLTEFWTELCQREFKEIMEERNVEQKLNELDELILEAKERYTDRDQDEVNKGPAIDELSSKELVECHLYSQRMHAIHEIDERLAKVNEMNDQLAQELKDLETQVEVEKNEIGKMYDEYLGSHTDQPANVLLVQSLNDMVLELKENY

B1: Mtw1‐5A: Mtw1 D25A D81A K82A E84A Y86A, interface I (protein, UniProt P39731 1-289, looked up, variant D25A D81A K82A E84A Y86A)
Kinetochore-associated …: T1 sequence (looked up) 1 with D25A, D81A, K82A, E84A, Y86A
B2: Mtw1‐3A: Mtw1 E73A N32A Y36A, interface II (protein, UniProt P39731 1-289, looked up, variant E73A N32A Y36A)
Kinetochore-associated …: T1 sequence (looked up) 1 with N32A, Y36A, E73A
B3: Mtw1-8A: Mtw1 D25A N32A Y36A E73A D81A K82A E84A Y86A, interface I+II (protein, UniProt P39731 1-289, looked up, variant D25A N32A Y36A E73A D81A K82A E84A Y86A)
Kinetochore-associated …: T1 sequence (looked up) 1 with D25A, N32A, Y36A, E73A, D81A, K82A, E84A, Y86A
B4: Mif2^1-41 peptide (peptide, UniProt P35201 1-41, looked up)
peptide: MDYMKLGLKSRKTGIDVKQDIPKDEYSMENIDDFFKDDETS
notes: Mif2, S. cerevisiae, residues 1-41, unlabeled, used in ITC; also called Mif2-N
B5: FITC-Mif2^1-41 (peptide, UniProt P35201 1-41, looked up)
peptide: B4 peptide
modifications: also: FITC label (position not given here)
notes: Mif2, S. cerevisiae, residues 1-41; also called Mif2-N (FITC-labeled N-terminal Mif2 peptide)
B6: Ame1-N peptide (aa 1-20) (peptide, UniProt P38313 1-20, looked up)
peptide: MDRDTKLAFRLRGSHSRRTD
notes: Ame1 (CENP-U homolog), S. cerevisiae, residues 1-20; also called Ame1^1-20; Ame1_1-20

Assays:
[1] = tested on: hemizygous Mtw1 deletion strain; assay: Tetrad analysis, Mtw1 alleles; format: cell-based, budding yeast; details: Mtw1 rescue construct only source of Mtw1
Experimental: Figure 3 Analysis of Mtw1 interface mutants in vivo • Structure of the Mtw1c head I bound to Mif2 and list of key residues constituting interface I (Mif2 binding) and interface II (putative Ame1 binding) from Dimitrova et al. • Analysis of these Mtw1 mutants in vivo using the anchor‐away technique. Mtw1‐FRB strains containing RPL13‐FKBP12 for cytoplasmic anchoring and additionally harboring the indicated rescue alleles were plated in serial dilution on YEPD or YEPD + rapamycin plates incubated at 30°C. • Tetrad analysis of Mtw1‐wt or mutants. Surviving spores in which the Mtw1‐wt or mutant rescue construct was the only source of Mtw1 are indicated in pink circles. • Western blotting confirming the expression of Mtw1‐6x‐Flag wt or mutant proteins in the Mtw1‐FRB strain background. • Analytical SEC runs and accompanying SDS–PAGE of Mtw1c‐wt or Mtw1c‐5A mutant (blue), AO (gray), or a stoichiometric combination of both complexes (green) at 10 μM each. Boxes indicate corresponding fractions in left and right panels.
The inability of these alleles to support growth was not due to lack of protein expression, although the steady‐state level was reduced compared to the wild‐type as shown by Western blotting (Fig 3D). We additionally confirmed that Mtw1 interface I mutants indeed confer a lethal phenotype by introducing the respective mutations into a hemizygous Mtw1 deletion strain and performing tetrad dissection. […] The more severe phenotype of Mtw1‐3A in the FRB system compared to tetrad dissection might be due to the additional mutations in the complex genetic background of the anchor‐away strain, which might make it more sensitive to the Mtw1‐3A mutation.
Serial fourfold dilutions of overnight cultures were prepared on 96‐well plates in minimal medium starting from OD600 of 0.6. The dilutions were spotted on YPD medium with and without rapamycin or on YP‐glucose and YP‐galactose and grown at 30°C for 3 days. […]

[2] = tested on: Ame1‐Okp1 (AO) complex; assay: Analytical SEC of Mtw1c wild-type and mutants with Ame1-Okp1 (AO); format: binding, budding yeast; details: 10 μM each
Experimental: Figure 3 Analysis of Mtw1 interface mutants in vivo • Structure of the Mtw1c head I bound to Mif2 and list of key residues constituting interface I (Mif2 binding) and interface II (putative Ame1 binding) from Dimitrova et al. • Analysis of these Mtw1 mutants in vivo using the anchor‐away technique. Mtw1‐FRB strains containing RPL13‐FKBP12 for cytoplasmic anchoring and additionally harboring the indicated rescue alleles were plated in serial dilution on YEPD or YEPD + rapamycin plates incubated at 30°C. • Tetrad analysis of Mtw1‐wt or mutants. […]
The GST pulldown experiment was performed using BSA‐preblocked GSH Sepharose beads. […] Beads were washed twice in pulldown buffer, before Laemmli sample buffer was added to the beads (GST pulldown) or proteins were eluted in pulldown buffer supplemented with 1 mg/ml Flag peptide before addition of Laemmli sample buffer (Flag pulldown) and samples were analyzed on a Coomassie Brilliant Blue‐stained SDS–PAGE gel or Western blotting. […] Elution of proteins was monitored at 280 nm. 100 μl fractions were collected and analyzed by SDS–PAGE and Coomassie Brilliant Blue staining or Western blotting. […] After several washes with lysis buffer, proteins were eluted with 0.2 mg/ml 3xFlag peptide in lysis buffer, and fractions were analyzed by Western blotting. […]

[3] = target: T1, Mtw1-Nnf1 heterodimer (MN); assay: ITC; peptide (Mif2 1-41 250 μM or Ame1 1-20 800 μM) titrated into 25 μM MN; 30 mM Hepes pH 7.5, 150 mM NaCl, 1 mM TCEP, 25°C; one set of binding sites; average of 3 or 4 experiments; details: both partners purified
[4] = target: T1, Mtw1-Nnf1 heterodimer (MN); assay: fluorescence polarisation; 0.1 μM FITC-Mif2 1-41, MN added from 0 to 4 μM; 30 mM Hepes pH 7.5, 150 mM NaCl, 1 mM TCEP, 23°C; one set of binding sites; triplicates; details: both partners purified

Row | Molecule | viability of haploid spores [1] | interaction of Mtw1c with AO, SEC [2] | Kd [3] [nM] | further results
1 | B1 | inviable | no longer able to interact efficiently with AO |  | 
2 | B2 | viable, albeit slow‐growing | abolish AOc binding |  | 
3 | B3 | inviable |  |  | 
4 | B4 |  |  | 1170 | 
5 | B5 |  |  |  | Kd [4]: 380 nM
6 | B6 |  |  | 12500 | 
